Tests used:
[1] = target: GB1-U1A (1-282) (UniProt P09012 1-282); experiment: NMR titration
[2] = target: U1A RRM1 (1-126) (UniProt P09012 1-126); experiment: NMR titration
Sequence of U1A RRM1 (1-126) (P09012 1-126): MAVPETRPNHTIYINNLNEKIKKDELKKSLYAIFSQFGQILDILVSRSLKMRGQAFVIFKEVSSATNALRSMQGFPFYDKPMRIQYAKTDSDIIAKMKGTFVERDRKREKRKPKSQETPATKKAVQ

Sequence of GB1-U1A (1-282) (P09012 whole entry): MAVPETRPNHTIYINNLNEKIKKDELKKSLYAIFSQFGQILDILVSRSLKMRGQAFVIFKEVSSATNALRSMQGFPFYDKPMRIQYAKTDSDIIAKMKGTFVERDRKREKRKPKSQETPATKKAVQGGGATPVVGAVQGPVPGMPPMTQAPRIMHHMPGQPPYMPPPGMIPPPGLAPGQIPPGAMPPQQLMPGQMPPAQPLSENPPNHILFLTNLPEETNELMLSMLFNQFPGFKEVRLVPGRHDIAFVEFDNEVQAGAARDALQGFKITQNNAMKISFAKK

binding result [1]: binds | binding result [2]: binds
B1: GB1-hSAM68 (C2) (domain or fragment, human, UniProt Q07666 365-443, looked up)
chain: TYEEYGYDDTYAEQSYEGYEGYYSQSQGDSEYYDYGHGEVQDSYEAYGQDDWNGTRPSLKAPPARPVKGAYREHPYGRY
